Among the data in paper PMC12702194 are PLA mean staining intensity values, retold here.

For the experiment, the target named is Fibronectin 1 (FN1) (human (endogenous in C28/I2)). Briefly: proximity ligation; Duolink in situ PLA on decellularized, fixed matrix of C28/I2 WT cells cultured for 72 h; primary antibodies mouse anti-fibronectin or mouse anti-Col II with rabbit anti-ERp57; controls: matrix of ERp57 KO cells and omitted primary antibodies; some cultures incubated with 10 mM DTT for 15 min at 37°C before decellularization (PLA signal significantly decreased).
Fibronectin 1 (FN1) (human (endogenous in C28/I2)), sequence (P02751 32-2477): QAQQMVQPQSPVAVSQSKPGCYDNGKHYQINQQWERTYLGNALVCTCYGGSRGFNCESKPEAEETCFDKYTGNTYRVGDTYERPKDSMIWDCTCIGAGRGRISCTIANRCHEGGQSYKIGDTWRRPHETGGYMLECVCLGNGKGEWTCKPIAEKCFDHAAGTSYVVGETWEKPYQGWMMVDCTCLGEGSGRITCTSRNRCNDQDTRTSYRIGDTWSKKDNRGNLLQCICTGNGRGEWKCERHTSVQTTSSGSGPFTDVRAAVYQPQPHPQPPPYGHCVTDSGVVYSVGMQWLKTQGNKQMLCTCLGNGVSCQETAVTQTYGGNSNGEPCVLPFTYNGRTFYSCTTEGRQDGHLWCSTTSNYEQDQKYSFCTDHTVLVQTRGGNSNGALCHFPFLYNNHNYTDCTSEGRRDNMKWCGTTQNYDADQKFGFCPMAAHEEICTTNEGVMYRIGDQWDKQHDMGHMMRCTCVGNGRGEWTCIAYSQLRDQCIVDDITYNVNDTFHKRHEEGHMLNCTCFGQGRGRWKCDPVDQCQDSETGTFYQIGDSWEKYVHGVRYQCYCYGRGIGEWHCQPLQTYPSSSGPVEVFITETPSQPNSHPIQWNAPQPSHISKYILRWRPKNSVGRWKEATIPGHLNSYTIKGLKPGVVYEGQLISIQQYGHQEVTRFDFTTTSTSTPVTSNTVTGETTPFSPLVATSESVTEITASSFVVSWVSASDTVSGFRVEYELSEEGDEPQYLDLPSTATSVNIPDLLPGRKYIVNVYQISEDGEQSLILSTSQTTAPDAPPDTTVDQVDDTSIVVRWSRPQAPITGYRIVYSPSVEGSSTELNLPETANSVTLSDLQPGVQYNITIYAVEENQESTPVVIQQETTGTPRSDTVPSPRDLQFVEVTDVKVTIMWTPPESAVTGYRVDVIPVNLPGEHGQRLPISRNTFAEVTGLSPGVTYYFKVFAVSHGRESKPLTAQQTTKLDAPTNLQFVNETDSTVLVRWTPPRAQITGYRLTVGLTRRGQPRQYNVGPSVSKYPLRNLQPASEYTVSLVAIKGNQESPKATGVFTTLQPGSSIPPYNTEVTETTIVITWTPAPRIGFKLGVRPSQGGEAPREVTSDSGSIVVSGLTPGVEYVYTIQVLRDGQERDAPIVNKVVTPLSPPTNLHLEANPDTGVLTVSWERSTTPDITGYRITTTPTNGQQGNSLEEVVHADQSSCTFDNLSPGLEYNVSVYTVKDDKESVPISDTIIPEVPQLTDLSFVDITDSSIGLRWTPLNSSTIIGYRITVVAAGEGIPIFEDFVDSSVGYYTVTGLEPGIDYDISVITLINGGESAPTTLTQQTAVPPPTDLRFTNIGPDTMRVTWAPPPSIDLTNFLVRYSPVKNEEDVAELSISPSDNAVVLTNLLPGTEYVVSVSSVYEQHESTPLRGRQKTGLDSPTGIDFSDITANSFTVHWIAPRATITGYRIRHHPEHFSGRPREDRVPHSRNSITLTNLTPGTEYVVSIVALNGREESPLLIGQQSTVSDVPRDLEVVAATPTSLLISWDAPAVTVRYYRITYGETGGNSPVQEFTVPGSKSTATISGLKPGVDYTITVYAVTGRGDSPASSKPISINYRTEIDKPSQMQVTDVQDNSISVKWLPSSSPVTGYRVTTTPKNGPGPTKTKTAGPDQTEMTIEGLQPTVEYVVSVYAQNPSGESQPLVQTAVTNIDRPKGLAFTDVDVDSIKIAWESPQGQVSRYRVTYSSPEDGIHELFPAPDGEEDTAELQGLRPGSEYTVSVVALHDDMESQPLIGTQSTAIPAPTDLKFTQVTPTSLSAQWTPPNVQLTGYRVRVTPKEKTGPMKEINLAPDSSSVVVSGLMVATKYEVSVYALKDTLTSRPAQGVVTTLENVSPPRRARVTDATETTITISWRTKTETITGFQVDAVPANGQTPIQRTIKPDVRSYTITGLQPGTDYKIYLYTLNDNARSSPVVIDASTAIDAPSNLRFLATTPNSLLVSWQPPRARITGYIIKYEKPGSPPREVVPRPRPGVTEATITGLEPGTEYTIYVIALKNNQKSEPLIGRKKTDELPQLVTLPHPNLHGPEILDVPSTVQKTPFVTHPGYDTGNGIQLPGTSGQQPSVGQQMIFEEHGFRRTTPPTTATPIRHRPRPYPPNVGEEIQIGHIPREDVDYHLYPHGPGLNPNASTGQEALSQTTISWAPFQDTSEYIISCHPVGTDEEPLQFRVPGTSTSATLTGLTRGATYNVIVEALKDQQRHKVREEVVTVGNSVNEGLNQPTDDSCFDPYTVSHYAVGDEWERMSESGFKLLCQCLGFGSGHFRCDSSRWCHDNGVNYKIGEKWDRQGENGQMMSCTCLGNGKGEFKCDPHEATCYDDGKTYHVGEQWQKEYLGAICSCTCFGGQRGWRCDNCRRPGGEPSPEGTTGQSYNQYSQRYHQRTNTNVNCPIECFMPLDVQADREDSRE

Consider “endoplasmic reticulum protein 57 (ERp57) (from UniProt P30101 25-505) (enzyme)”, for which the PLA mean staining intensity was determined as 0.284.
